Data on one substance can be found in IntAct's records for PubMed 21216997.

In assay [1] the target is ftsz_ecoli ftsZ (UniProt P0A9A6).
Assay [2] shares this target. This is another data set of the same source.

Chain of ftsz_ecoli ftsZ (P0A9A6 whole entry): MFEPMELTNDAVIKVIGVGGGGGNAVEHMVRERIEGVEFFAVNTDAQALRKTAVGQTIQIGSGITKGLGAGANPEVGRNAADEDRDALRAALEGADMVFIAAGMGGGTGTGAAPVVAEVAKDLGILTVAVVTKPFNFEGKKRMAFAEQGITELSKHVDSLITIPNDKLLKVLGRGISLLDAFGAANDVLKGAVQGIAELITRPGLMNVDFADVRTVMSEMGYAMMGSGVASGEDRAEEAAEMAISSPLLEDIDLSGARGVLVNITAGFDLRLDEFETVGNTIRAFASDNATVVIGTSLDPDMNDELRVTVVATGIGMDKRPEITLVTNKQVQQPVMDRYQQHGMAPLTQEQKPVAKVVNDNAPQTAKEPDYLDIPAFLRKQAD

Take “Cell division protein ZapC (Escherichia coli (strain K12)), P75862 L22P”: the “effect of a mutation on the interaction” value was “decreasing interaction strength” with ftsz_ecoli ftsZ [1] and “disrupting interaction” with ftsz_ecoli ftsZ [2].
